Test results: the DeepSol protein solubility set

Test: soluble on expression in E. coli; label from the status in PepcDB or PDB records

Row | Sequence | soluble on expression in E. coli
1 | MDIRKFFGVIPSGKKLVSETVKKNEKTKSDEETLKAKKGIKEIKVNSSRKEDDFKQKQPSKKKRIIYDSDSESEETLQVKNAKKPPEKLPVSSKPGKISRQDPVTYISETDEEDDFMCKKAASKSKENGRSTNSHLGTSNMKKNEENTKTKNKPLSPIKLTPTSVLDYFGTGSVQRSNKKMVASKRKELSQNTDESGLNDEAIAKQLQLDEDAELERQLHEDEEFARTLAMLDEEPKTKKARKDTEAGETFSSVQANLSKAEKHKYPHKVKTAQVSDERKSYSPRKQSKYESSKESQQHSKSSADKIGEVSSPKASSKLAIMKRKEESSYKEIEPVASKRKENAIKLKGETKTPKKTKSSPAKKESVSPEDSEKKRTNYQAYRSYLNREGPKALGSKEIPKGAENCLEGLIFVITGVLESIERDEAKSLIERYGGKVTGNVSKKTNYLVMGRDSGQSKSDKAAALGTKIIDEDGLLNLIRTMPGKKSKYEIAVETEMKKESKLERTPQKNVQGKRKISPSKKESESKKSRPTSKRDSLAKTIKKETDVFWKSLDFKEQVAEETSGDSKARNLADDSSENKVENLLWVDKYKPTSLKTIIGQQGDQSCANKLLRWLRNWQKSSSEDKKHAKFGKFSGKDDGSSFKAALLSGPPGVGKTTTASLVCQELGYSYVELNASDTRSKSSLKAIVAESLNNTSIKGFYSNGAASSVSTKHALIMDEVDGMAGNEDRGGIQELIGLIKHTKIPIICMCNDRNHPKIRSLVHYCFDLRFQRPRVEQIKGAMMSIAFKEGLKIPPPAMNEIILGANQDIRQVLHNLSMWCARSKALTYDQAKADSHRAKKDIKMGPFDVARKVFAAGEETAHMSLVDKSDLFFHDYSIAPLFVQENYIHVKPVAAGGDMKKHLMLLSRAADSICDGDLVDSQIRSKQNWSLLPAQAIYASVLPGELMRGYMTQFPTFPSWLGKHSSTGKHDRIVQDLALHMSLRTYSSKRTVNMDYLSLLRDALVQPLTSQGVDGVQDVVALMDTYYLMKEDFENIMEISSWGGKPSPFSKLDPKVKAAFTRAYNKEAHLTPYSLQAIKASRHSTSPSLDSEYNEELNEDDSQSDEKDQDAIETDAMIKKKTKSSKPSKPEKDKEPRKGKGKSSKK | soluble
2 | SSYADFVWFLISEEDKRNPTSIEYWFRCMDVDGDGILSMYELEYFYEEQCERMEAMGIEPLPFHDLLCQMLDLVKPASDGRITLRDLKRCRMAHIFYDTFFNLEKYLDHEQRDPFAVQKDVENDGPEPSDWDRFAAEEYEALVTEESAQVQLQEGSFEDYESDEPVSPSELGNKGNKIVTSSLSEKCGKLQSVDEE | soluble
3 | MDTRTRHLKVSNCPNNSYALANVAAVSPNDFPNNIYIIIDNLFVFTTRHSNDIPPGTIGFNGNQRTWGGWSLNQDVQAKAFDLFKYSGKQSYLGSIDIDISFRARGKAVSTVFDQDELAKQFVRCYESQIFSPTQYLIMEFQGHFFDLKIRNVQAIDLGDIEPTSAVATGIETKGILTKQTQINFFKGR | soluble
4 | MSNVYVMALDFGNGFVKGKINDEKFVIPSRIGRKTNENNQLKGFVDNKLDVSEFIINGNNDEVLLFGNDLDKTTNTGKDTASTNDRYDIKSFKDLVECSIGLLAREVPEEVVNVVIATGMPSNEIGTDKQAKFEKLLNKSRLIEIDGIAKTINVKGVKIVAQPMGTLLDLNMENGKVFKAFTEGKYSVLDFGSGTTIIDTYQNMKRVEEESFVINKGTIDFYKRIASHVSKKSEGASITPRMIEKGLEYKQCKLNQKTVIDFKDEFYKEQDSLIEEVMSNFEITVGNINSIDRIIVTGGGANIHFDSLSHYYSDVFEKADDSQFSNVRGYEKLGELLKNKVEQESKRGSHHHHHH | soluble
5 | MTTAVARLQPSASGAKTRPVFPFSAIVGQEDMKLALLLTAVDPGIGGVLVFGDRGTGKSTAVRALAALLPEIEAVEGCPVSSPNVEMIPDWATVLSTNVIRKPTPVVDLPLGVSEDRVVGALDIERAISKGEKAFEPGLLARANRGYLYIDECNLLEDHIVDLLLDVAQSGENVVERDGLSIRHPARFVLVGSGNPEEGDLRPQLLDRFGLSVEVLSPRDVETRVEVIRRRDTYDADPKAFLEEWRPKDMDIRNQILEARERLPKVEAPNTALYDCAALCIALGSDGLRGELTLLRSARALAALEGATAVGRDHLKRVATMALSHRLRRDPLDEAGSTARVARTVEETLP | soluble
6 | MGSDKIHHHHHHMAFVGFKKSGKTTTIEKVARVLKEKGYRVAIVKSMHSEFDRPGTDTWKFSRIADSVLVHAKDTDALLFKAKDINALFSMISSDVVLIEGFKSIKHVPKVICARSEDEVRELNDGLAIAVSGVIASQGVKEVDGLPVIDGTREPEKLAELVLKRGFMLPNIDCGLCGFNCEQMAKLIVKGEKSVNDCVVLSSRPKVIIKIDGQPLYLKDWVQELVEKTIKGMLSAMKGYREGKRIEIIING | not soluble
7 | GKNVMVEPHRHEGVFICRGKEDALVTKNLVPGESVYGEKRVSISEGDDKIEYRAWNPFRSKLAAAILGGVDQIHIKPGAKVLYLGAASGTTVSHVSDIVGPDGLVYAVEFSHRSGRDLINLAKKRTNIIPVIEDARHPHKYRMLIAMVDVIFADVAQPDQTRIVALNAHTFLRNGGHFVISIKANCIDSTASAEAVFASEVKKMQQENMKPQEQLTLEPYERDHAVVVGVYRP | soluble
8 | MSLLFDSHLHLDQLSDENIQQTLAHSKIIGMLAVSTNLNSAKKLLNLKQTYPKKLYIAAGFHPEQQLPSLEEQKKLFQWIDEHHSSISAIGEVGLPHYSKRENPNLDYVPYIELLERFILIAKKWDLPLNLHIVHNDVEIALELLQKHNIQRAHFHWFKTDEKSFQKFFSTPYFASLTPDILWNSKTQYVAQHLSLNRLMIETDSPWQHEGFERAGISEQLLAVLQKLAELKSLPLHSVQKQILLNTQQFYQLEGHHHHHH | soluble
9 | MSSTKQKALKKIAKCLELGNSANVNEAAQAIKMAHRLMLKYGLEKDDIEFIKMGKTQSIHLLPANVGSNILKIIRGINTRFGVEAVLLNHKGLKKVEFIGSADRAIFAAFAFDIVYREMNEQTGQFKNSFAGTGTGQLEVTKRVNSFLAGWIEGALEKLPVIAPDEDSANKINDYIDKEFKNIDRETFKQQLKEAMANITADYEKGLKKGRTISVNRPVAGAQAPKLLK | not soluble
10 | MAHHHHHHMSHIYDMLGINVEKLKTKKKQKEKISKKQLNFLKDNDNLFSLPTTSKIISLNNKNVSVWRLVKFRSKCRNDDLILTKWSKIGYKNDKKEFNEDKIEDDNTFEKFNKKINIIKYNDDLYYREIQPLNTGWTKEETDYLFNLCEKYDCHFIIVNDVYDIKYKRTIEEIKERFYTVTKKVMEDKFDQQIKLEEAKKIKNNNDILKLKEAKAKHPLIKFTYNMQADLERKNIIHKTYTVSKKDVMLEETTLENIKKFESKIKLELKKAADMKKLKKKFELTTEEIVPITKLPEEDKEAKNIYSARYYFQKLKIDISYFDKLDIYLKENNIEKPTIYTENICFLYGVLRTDVAILLNLRKKIEKLKQEREFWKGQMNNLEEEYLKKQQKT | not soluble
11 | MGHHHHHHSHMSGTEEAILGGRDSHPAAGGGSVLCFGQCQYTAEEYQAIQKALRQRLGPEYISSRMAGGGQKVCYIEGHRVINLANEMFGYNGWAHSITQQNVDFVDLNNGKFYVGVCAFVRVQLKVRGWSRPAARKDQWVVGEGWFIS | not soluble
12 | MQFGIFTIGDVTVDPTTGKAPTEGERIHAMTQIALKAEEVGLDVFATGEHHNPPFVPSSPTTHLAYIAAKTEKLLLSTSTTLITTNDPVKIAEDYTFLQHLSGGRVDLMMGRGNTGPVYPWFGKDIHQGIPLAIENYHLLRRLWREDVVNWQGKFRTPLQGYTSTPAPLDGVAPFVWHGSIRSTEIAEQAAFYGDGFFHNNIFWNKEHTAQMVNLYRQRFEHYGHGQADQAIVGLGGQVFIGDSEEEAKKTFRPYFDNAPVYGHGPSLEDFSRLTPLTVGTAEQVIERTMEFADWVGDYQRQLFLIDHAGLPLEMVLDQIERLGHDVVPEVRRRMEERRPDHVPSNPPTHQSLKANRNSPHFQINPGQPTE | not soluble
13 | MGSDKIHHHHHHMMRGAPMTLRPRLICLPPAGAGPSLFRSWVQNSESIFDVVPVALPGREAHFTKPLPRDIQSLADHVTNEIIGLLQAPYALFGYSMGAVVAYELLRHLSLRRLPLPDAFYILGSNAPDRVLEGREPIHSMTSEDFQQSLVEIGGTPDEILRDREAMALFEPVLRNDFRICETYEFTPPHLPVTFPVHVFVADADHLVSWKAAGAWENCIGQDITMHGIEGSHMLPPQAFAHFIGKLGQLWQTDQVQACAVSTRTA | not soluble
14 | MSLTGGLFGAKPAGSTTGGLFGANTSTQQPAATQGSGLFGAKPTGTGLFGGQTQGSTTSGASAGGLFGKSANPAPGGAGLFGNTAQSNSVSSNTGGLFGSKPAATGGLFGGQPSAPLSTFGQNPATTSLQTPGTGSLFGAKPVSTIAPNTASQMQQQTGISTTNPYGTNELFTRITIPESITAPSQPRFTKVNTDTKATSLNTAYKLNPKPLFSKGSLPSASIAHATPSIDKAPQNTDKSDNETTLVKFGSSLFNPETDEALITADELLFNPDRKSFKTLLINKKKVNEALLNEKSTSPDKDIKRITFNEKSLLKDEDSVRSSIFDNVLETPTNTENKLSEASSVDHDFNERQEVSRPDLKGDLMPNGISKLPGVKGSDFTQMENGYYISPSLDTLASMSLFQLSSVTNFVVGHKDHGYIEFMEPVNLTDIPLTLICGGIIEFRPRACIVKSGNEAGFHGKGFNVRARIVCYKCFPLDKSTRKPVTNPDHALVKNHIKKFKSMPNCKFESYDPKTGTYVFAVDNAEGHHHHHH | soluble
15 | MQYVAYAEGAKMASGAAKETSSNLFGIWDTWNSNPQMRKDHANELKKKSDEAYNNDMEELKKTRSAFDQEIAKRHAAADMQMSELVKSNNTELKTLQDQFNRDEASHGMAMKMMVREHAEKMKELRSEGREAQERAEREHRMKMSEAEEEHRKEKEIAQEKMDAAKREGSMKIALVEEEKQKIMKERSDELEKYTREMNEMAKNHQEERKKHNAIIGQKKMEMIGSKRDQLKIESEKILESMRNDINLLLAVEIKQNGSHLVEKLIDLFESVKTVKCLMDTVQTELTTIGDEVPEITPGQLSTFDDIKRHKTLFDNRVARFRKNVVTSSFTDAKLYEICMTTVSDFEKIMDKQDMKLVCHHLPKAVENQDFKKIKYYADMASKLNNQFSQEVQHLAAGFSNVSKTYAIDRSNQAAIQN | not soluble
16 | RVAHLLKKIHNSRPLLSMLKRMEMEPITPEIMLNKINASLSREVLTHHIVRKSLTYLEEHIPSLDSRFFTVVHGDVNHNNWLLSDRDELFLVDWEGAMIADPAIDIGMLLYNYVPQQQWSEWLETYGVQESLNLNKRMKWY | not soluble
17 | DIVMTQSPDSLAVSPGERATINCKSSQNLLDSSFDTNTLAWYQQKPGQPPKLLIYWASSRESGVPDRFSGSGSGTDFTLTISSLQAEDVAVYYCQQYYSTPPTFGGGTKVEIKR | soluble
18 | MLSGYIAGAIMKQEVILVLDCGATNVRAIAVNRQGKIVARASTPNASDIAMENNTWHQWSLDAILQRFADCCRQINSELTECHIRGIAVTTFGVDGALVDKQGNLLYPIISWKCPRTAAVMDNIERLISAQRLQAISGVGAFSFNTLYKLVWLKENHPQLLERAHAWLFISSLINHRLTGEFTTDITMAGTSQMLDIQQRDFSPQILQATGIPRRLFPRLVEAGEQIGTLQNSAAAMLGLPVGIPVISAGHDTQFALFGAGAEQNEPVLSSGTWEILMVRSAQVDTSLLSQYAGSTCELDSQAGLYNPGMQWLASGVLEWVRKLFWTAETPWQMLIEEARLIAPGADGVKMQCDLLSCQNAGWQGVTLNTTRGHFYRAALEGLTAQLQRNLQMLEKIGHFKASELLLVGGGSRNTLWNQIKANMLDIPLKVLDDAETTVAGAALFGWYGVGEFNSPEEARAQIHYQFRYFYPQTEPEFIEEV | not soluble
19 | MNKRCEEVLRRYFAEVPFIIEKACELAESMLGEGSHGLSHTIRVLDLALQIGRVEGANLEVLALAAILHDIARPLEDKGRIKDHAQEGARIVRSFLSKLRYPHVDEVAHAIEAHRFSTNIEPRTLEAKILSDADKIDALGAIGIARVFMYAGEKGRSIEDSIKHFEEKILRLKDLMYTETGKRIAQERHKIVEEFVNILKKELIAAALEHHHHHH | soluble
